# Measured values published in IntAct's records for PubMed 16810321.
# B1: bZIP transcription factor 53 (Arabidopsis thaliana (Mouse-ear cress)), Q9LZP8 (parent)
# chain: MGSLQMQTSPESDNDPRYATVTDERKRKRMISNRESARRSRMRKQKQLGDLINEVTLLKNDNAKITEQVDEASKKYIEMESKNNVLRAQASELTDRLRSLNSVLEMVEEISGQALDIPEIPESMQNPWQMPCPMQPIRASADMFDC
# partner: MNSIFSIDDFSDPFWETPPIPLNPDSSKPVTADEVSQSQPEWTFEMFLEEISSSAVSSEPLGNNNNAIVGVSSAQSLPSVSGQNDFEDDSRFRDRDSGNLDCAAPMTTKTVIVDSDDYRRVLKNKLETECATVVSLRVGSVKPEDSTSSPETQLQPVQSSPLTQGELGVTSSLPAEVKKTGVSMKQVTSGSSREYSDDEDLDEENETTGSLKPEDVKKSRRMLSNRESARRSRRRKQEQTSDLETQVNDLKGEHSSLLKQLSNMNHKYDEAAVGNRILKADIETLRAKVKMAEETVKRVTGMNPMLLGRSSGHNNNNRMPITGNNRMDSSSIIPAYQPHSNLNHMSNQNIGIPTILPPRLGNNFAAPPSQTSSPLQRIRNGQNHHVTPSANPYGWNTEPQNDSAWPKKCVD
# B2: bZIP transcription factor 53 (Arabidopsis thaliana (Mouse-ear cress)), Q9LZP8 (parent)
# chain: B1 chain
# partner: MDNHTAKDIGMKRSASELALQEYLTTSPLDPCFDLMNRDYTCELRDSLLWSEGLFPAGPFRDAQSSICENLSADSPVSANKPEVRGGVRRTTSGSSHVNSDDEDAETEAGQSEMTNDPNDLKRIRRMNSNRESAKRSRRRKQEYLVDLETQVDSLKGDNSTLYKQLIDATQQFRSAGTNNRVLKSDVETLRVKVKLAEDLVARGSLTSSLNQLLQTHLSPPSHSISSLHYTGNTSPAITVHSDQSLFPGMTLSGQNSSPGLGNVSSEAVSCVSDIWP
# Variants of: B1
# Settings: with bzp10_arath BZIP10, O22763
row,effect of a mutation on the interaction,Variant
1,disrupting interaction,A72P
2,disrupting interaction,L51P

# Variants of: B2
# Settings: with bzip9_arath BZIP9, Q9FUD3
row,effect of a mutation on the interaction,Variant
1,disrupting interaction,A72P
2,disrupting interaction,L51P
